Experimental data: paper PMC2132754

Target: recombinant mouse α-catenin with a COOH-terminal histidine tag (mouse) (UniProt P26231)
Experiment: co-sedimentation

Sequence of UniProt P26231 (P26231 whole entry): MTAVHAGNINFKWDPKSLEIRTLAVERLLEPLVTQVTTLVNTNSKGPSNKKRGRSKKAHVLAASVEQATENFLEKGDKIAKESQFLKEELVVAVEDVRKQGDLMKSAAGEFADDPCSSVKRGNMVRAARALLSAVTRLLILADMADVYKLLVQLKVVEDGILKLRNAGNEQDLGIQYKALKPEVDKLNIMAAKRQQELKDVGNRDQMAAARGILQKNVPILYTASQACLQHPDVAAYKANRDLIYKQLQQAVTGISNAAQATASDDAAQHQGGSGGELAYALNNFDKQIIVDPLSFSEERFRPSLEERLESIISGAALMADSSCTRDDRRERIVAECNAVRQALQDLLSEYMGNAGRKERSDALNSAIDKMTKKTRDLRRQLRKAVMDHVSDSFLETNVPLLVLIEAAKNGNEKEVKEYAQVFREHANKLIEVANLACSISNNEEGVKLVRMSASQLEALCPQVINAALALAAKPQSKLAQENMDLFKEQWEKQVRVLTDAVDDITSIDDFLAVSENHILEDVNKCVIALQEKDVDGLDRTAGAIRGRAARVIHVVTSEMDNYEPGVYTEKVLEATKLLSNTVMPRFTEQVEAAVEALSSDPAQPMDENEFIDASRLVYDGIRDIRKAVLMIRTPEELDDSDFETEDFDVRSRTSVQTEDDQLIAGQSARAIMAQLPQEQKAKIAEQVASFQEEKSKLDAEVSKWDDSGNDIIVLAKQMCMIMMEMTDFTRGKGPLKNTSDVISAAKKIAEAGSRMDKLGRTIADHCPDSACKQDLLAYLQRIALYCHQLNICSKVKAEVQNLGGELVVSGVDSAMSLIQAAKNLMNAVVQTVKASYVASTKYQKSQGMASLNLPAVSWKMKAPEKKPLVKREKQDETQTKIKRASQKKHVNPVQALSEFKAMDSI

Question: For “vinculin 90-kD head fragment (V8 protease fragment of chicken gizzard vinculin) (domain or fragment)”, which stoichiometry N is on record?
Answer: The stoichiometry N was 1.
